The values below come from the supplement of paper PMC12042874.

± gives the uncertainty stated by the source.

A short description of the data set: amyloid nucleation score (Sup35N fusion, yeast selection) (log enrichment); library NNK3; higher = more nucleation; inactive = no reads after selection. Put shortly: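 The nucleation score, computed with DiMSum, is the log enrichment of output over input reads, centred on the mode score of non-aggregating sequences. Sequences with under 100 input reads were dropped. Reads were generated by Illumina sequencing of plasmid inserts from psi-negative yeast with Sup35N fused to peptides of 20 random codons, induced with 100 μM copper sulfate for 24 hours and grown 7 days at 30°C on medium lacking adenine and uracil.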

With GICNQNIPQRGSMWLVSKTF, the amyloid nucleation score entry was “inactive”. Under ADVGGD stands “inactive”; under CKLRLWSEFSLVTSRSIYIA, “inactive”. The value for FYPLYSNEHCCG was “inactive”; that for FKYYRSYYPYICLKSVI was “inactive”; that for WLVKGPVCKGSAS was -0.116 ± 1.1. The value for INFYVSFYIIVTCYVVAHCV was 1.32 ± 0.15; that for HANRSCCLPCIHLPFSRVLS was “inactive”; that for PVHGVGLAIRGSYGSYTGLL was “inactive”. With SQLCITNSRW, the amyloid nucleation score entry was “inactive”. The value for IIFFNSDMNLGTDV was “inactive”. On to NTSWLNSWATVITIWPYCAL, for which the amyloid nucleation score came out at 0.724 ± 0.2. For RDYQCLQLYCRSASPIT, the amyloid nucleation score entry is “inactive”. The value for TQNGVCYRNPVFYGRRARKL was “inactive”.

With SLMKPKSVMEAKVIRINLCL, the amyloid nucleation score turned out to be 0.494 ± 0.28. Turning to IYSIKSV, the amyloid nucleation score was -0.357 ± 0.68. The value for SQLQVISKIENSRKVIQRSS was “inactive”; that for IRFSGIVAVMISQGGSRREC was 2.5 ± 0.08. The value for FFKSLRV was “inactive”. In the case of WLCWQHSDLMNRDCNGLTLG, the amyloid nucleation score result is “inactive”. On to RGTVSQFVMAVNWFTSFVKR, for which the amyloid nucleation score entry is “inactive”. Under VTFSSISHIRRYVSNHMCLG stands “inactive”. FMGLGLQLRLIHLSRG: the amyloid nucleation score result is “inactive”. Under FNCGPCIVLEWYFTSVAGQG stands 2.1 ± 0.071; under SYEHFRWLYHVFKVARFFFL, “inactive”; under SYTSMFPRCQKIHLRQVRIS, “inactive”.

Take GESNLCDAG: the amyloid nucleation score result was “inactive”. The value for VMTVVRKSSSSVVAISWISE was 0.392 ± 0.54.

On to SVYLTHSLFLRQLVGYLVHL, for which the amyloid nucleation score result is “inactive”. Under DYHLQLKMLRPW stands “inactive”; under AYWRREKMCSVPGGSWSGWV, “inactive”. Under NLSRLKRFYIANSR stands “inactive”; under FESLHSCV, “inactive”; under TDMHGFNNIS, “inactive”. The value for SSFSFYYDFIHS was -0.433 ± 0.88; that for RSRDIGVFTGVQCLVRYRRY was “inactive”; that for KHSVSLECRIRSAGDTVGWF was “inactive”.

With SLGLNTPAREFYWGCILTFG, the amyloid nucleation score result is “inactive”. On to IWWNHCEHHMLRSSLRVRAY, for which the amyloid nucleation score result was “inactive”. Under QTTLSYIVCMQSRQLRNRAW stands 0.848 ± 0.099; under LFVIINPQVTWLLFRMFESH, “inactive”. TWWWDTKLVRRPCSRGWVTC: the amyloid nucleation score result is “inactive”. Consider VTVMT, for which the amyloid nucleation score result was “inactive”. The value for VNTFGLDHEITSFMMCGETG was “inactive”; that for NLAMWMDSECLRVSN was “inactive”; that for AMDRTNNIEDEQWIMNKYWV was “inactive”.

For FNFLVMILGITLPNNITFEH, the amyloid nucleation score came to 0.279 ± 0.17. For NMTTGYGAMGFRVVEAWFGC, the amyloid nucleation score stood at 1.13 ± 0.11.

For VIVRDSLISVSSTIRDFVCG, the amyloid nucleation score result is “inactive”. Under LGFFSSSKLLVGGASASIVS stands “inactive”; under CVIITFESRILDELICDTVR, “inactive”; under NRIMGVGLY, “inactive”. Under LHTPIMRNYR stands “inactive”; under TWQVVNSPYPMRNIPYRSRW, “inactive”.

SLSLNIQGSNYFLHIVNIGR: the amyloid nucleation score entry is “inactive”.

On to NWKKCYVHYISSADYALRRF, for which the amyloid nucleation score result was “inactive”. Under TLDINMNLRSLYVGQHYADI stands “inactive”. Turning to LCGYGSGKTISG, the amyloid nucleation score result is “inactive”.

TAMCQSLGPTATTLTGVSWG: the amyloid nucleation score result was “inactive”.

Take AMSTDLLSVACL: the amyloid nucleation score result is “inactive”. As to IRVIISGVLGTELKNALAKY, the amyloid nucleation score entry was “inactive”. The value for HSDCDRTVTSGVELDSYGWT was “inactive”; that for VTCCARTYYSWP was “inactive”. Turning to YCVMNSAINSLRSMAIWSFA, the amyloid nucleation score result is “inactive”. The value for ISLKSLFVFHNLSVDIWVQR was “inactive”; that for YCSIMYVCNKILFNAAKARL was “inactive”.

Turning to SFNLTNSKYWVR, the amyloid nucleation score entry is “inactive”. The value for FTIVTQCEPTRLSCISDNIR was “inactive”; that for GKDVHMKGNSKRSVWYVPQG was “inactive”; that for KRNFGWSAIRVQFIDFCLKG was “inactive”. IDILNG returned an amyloid nucleation score of 0.152 ± 0.71.

Take SGDKSYRSRYHWMGIQRVNR: the amyloid nucleation score entry was “inactive”. The value for VCAGNTDPWSQELIPYRKC was “inactive”.

In the case of LQRGTQVYRCSLSFVRNVRF, the amyloid nucleation score entry is “inactive”. The value for VGQYGRFDTSQFCVFVVGE was “inactive”; that for CEKDRMNLWLTRDG was “inactive”. The value for DWNYNTLQLSSPVGAGLTKN was “inactive”. The value for ATPKPKGHY was “inactive”. For DDMTYGSVCNKSGRTPLLPS, the amyloid nucleation score entry was “inactive”. The value for IWNKFGIIFYVVYYSIRTNL was “inactive”; that for SKCEMMRTLEESDDVSFVVK was “inactive”; that for LWRWKYRAILKRYEKERVGR was “inactive”. The value for GTYLVSDAAGFYSWYLHYSF was “inactive”; that for PCSSLHCYMWYYVGANCHNL was “inactive”; that for TRVLSINRNTPANRLIGVGC was “inactive”. In turn, CSAWGLRKF registered an amyloid nucleation score of 0.673 ± 0.2. Under WCTSFGELEVYRVALILRTA stands “inactive”; under SWSANSCFVRIEKISLHNVG, “inactive”; under FPKLAIVFMHSSLWYFSYWV, “inactive”. The value for VPLMQGD was 3.16 ± 0.056; that for SGIYTMVWAFGFDVLYLLVS was “inactive”; that for GSISIVVQM was 2.2 ± 0.075. Under GCLEFGVMEFPGEDEFNFLG stands “inactive”; under VKKSYWAERGFFGA, “inactive”.

As to SKMRRSFCPIWFSRWSFLST, the amyloid nucleation score entry is “inactive”.

Consider SFLYDSVNANLNSTCCCGYI, for which the amyloid nucleation score was -0.913 ± 0.9. As to SERYADL, the amyloid nucleation score result is “inactive”. The value for RESNNLLFQQVGYLYYSWFY was 1.86 ± 0.078; that for GFPKWDESSMSTFDCSIRSR was “inactive”. The value for NWKLYWYNVSCL was 1.65 ± 0.067; that for VHLYADPDVMQYNRWDVVGY was “inactive”. The value for FYMLMISSQYFVTRLAPYFP was -0.015 ± 0.87; that for DTYGVVCEVYAILWMNRPLR was “inactive”. As for YLESGLTS, the amyloid nucleation score result was “inactive”. With VYFGSINYRRGGGYGYHSVI, the amyloid nucleation score came out at 0.027 ± 0.71. The value for GAQKYSFPRVSWPILGRIDY was “inactive”. Turning to SMLISRSEHLRLDTFGDSRY, the amyloid nucleation score stood at 0.634 ± 0.13. Under ISHFLE stands “inactive”; under YVIYFSN, -0.389 ± 0.93; under VPTVRLTSSSFL, “inactive”. The value for NMIWANEQE was “inactive”; that for GSPECPLVEV was “inactive”. Under IIYILPLCPRV stands “inactive”; under TCSYANHMSKVFEVVMV, “inactive”. RVAHFY: the amyloid nucleation score entry is “inactive”. Under ESDITICS stands “inactive”; under TLFQDSLLYVSWRSES, 0.118 ± 0.34. Under YSVAVREIVGMNSKLLCDVN stands “inactive”; under LGHVCILVQGGSKVRPTYGS, “inactive”. In the case of MSRMMSLNMECTSGMPESQV, the amyloid nucleation score entry is “inactive”. Regarding FLLIILTLYASTCRAQYAFR, the amyloid nucleation score turned out to be 1.42 ± 0.15. For VTVQK, the amyloid nucleation score result was “inactive”. Take SQASLFFSGWWILFTYMLGW: the amyloid nucleation score result was “inactive”.

Turning to TMCCACVFLSSSGWEFNYGL, the amyloid nucleation score stood at 2.35 ± 0.081. The value for VINRHVCGRVGMLTGFDGLT was “inactive”; that for MCQKQHQYQVTAIRTYMIRF was “inactive”. The value for VYFPTWFTLVFSPSKFWICI was “inactive”; that for LTNTLAYTVRKKTFQIGLLC was “inactive”; that for HRVYLPGRWRLMISLSC was -0.201 ± 1.3. For QEWKQWLMSWTSRKAFSLKS, the amyloid nucleation score entry was “inactive”.

On to SWTFRTLSKCVYYSFCREMD, for which the amyloid nucleation score result is “inactive”.
